Laboratory results published in publication PMC4321167 (2015).

B1: Trx-His-CPK33 (protein)
chain: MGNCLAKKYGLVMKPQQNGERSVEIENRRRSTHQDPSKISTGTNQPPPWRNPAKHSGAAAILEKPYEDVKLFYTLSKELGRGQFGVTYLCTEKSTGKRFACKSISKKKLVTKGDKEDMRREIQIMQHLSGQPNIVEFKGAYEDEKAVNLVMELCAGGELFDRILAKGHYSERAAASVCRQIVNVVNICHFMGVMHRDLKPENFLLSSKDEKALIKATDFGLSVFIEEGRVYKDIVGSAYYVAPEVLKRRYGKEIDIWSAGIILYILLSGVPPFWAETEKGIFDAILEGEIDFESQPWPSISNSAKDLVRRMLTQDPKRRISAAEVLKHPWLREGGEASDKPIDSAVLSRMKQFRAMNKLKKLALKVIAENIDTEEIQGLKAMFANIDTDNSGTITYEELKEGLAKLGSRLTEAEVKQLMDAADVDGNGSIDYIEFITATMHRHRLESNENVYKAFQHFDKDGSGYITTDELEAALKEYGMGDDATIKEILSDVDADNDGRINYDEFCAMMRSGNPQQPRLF
B2: Trx-His-CPK6 (protein)
chain: MGNSCRGSFKDKIYEGNHSRPEENSKSTTTTVSSVHSPTTDQDFSKQNTNPALVIPVKEPIMRRNVDNQSYYVLGHKTPNIRDLYTLSRKLGQGQFGTTYLCTDIATGVDYACKSISKRKLISKEDVEDVRREIQIMHHLAGHKNIVTIKGAYEDPLYVHIVMELCAGGELFDRIIHRGHYSERKAAELTKIIVGVVEACHSLGVMHRDLKPENFLLVNKDDDFSLKAIDFGLSVFFKPGQIFKDVVGSPYYVAPEVLLKHYGPEADVWTAGVILYILLSGVPPFWAETQQGIFDAVLKGYIDFDTDPWPVISDSAKDLIRKMLCSSPSERLTAHEVLRHPWICENGVAPDRALDPAVLSRLKQFSAMNKLKKMALKVIAESLSEEEIAGLRAMFEAMDTDNSGAITFDELKAGLRRYGSTLKDTEIRDLMEAADVDNSGTIDYSEFIAATIHLNKLEREEHLVSAFQYFDKDGSGYITIDELQQSCIEHGMTDVFLEDIIKEVDQDNDGRIDYEEFVAMMQKGNAGVGRRTMKNSLNISMRDV

Target: T1, GST-FD (Arabidopsis thaliana (Mouse-ear cress), UniProt Q84JK2)
T1 chain: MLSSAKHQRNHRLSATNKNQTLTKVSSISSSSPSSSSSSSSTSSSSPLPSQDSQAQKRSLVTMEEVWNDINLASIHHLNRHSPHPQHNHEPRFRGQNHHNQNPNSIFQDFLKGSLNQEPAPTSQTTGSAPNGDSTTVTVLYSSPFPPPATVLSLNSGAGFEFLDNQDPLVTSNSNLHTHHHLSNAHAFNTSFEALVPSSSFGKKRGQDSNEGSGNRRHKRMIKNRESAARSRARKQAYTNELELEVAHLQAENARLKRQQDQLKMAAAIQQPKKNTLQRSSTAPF
Test: GST pull-down

Row | Binder | binding result
1 | B1 | binds
2 | B2 | binds
